These results are taken from PMC9481538, “The interaction between LC8 and LCA5 reveals a novel oligomerization function of LC8 in the ciliary-centrosome system” (Scientific Reports, 2022).

Assay [1] concerns the target sLCA5-WT (LCA5 96-430 with N-terminal MBP and C-terminal 6xHis) (human (cDNA library from HEK293)) (UniProt Q86VQ0).
Assay [2] has the same target. In words: ITC; MBP-fused LCA5 construct in the cell, LC8 injected, 37 injections of 1 μl; 37 °C, PBS pH 7.4, 1 mM TCEP. A general note: ITC needs no label: the signal is the heat of the interaction.
Assay [3] concerns the target sLCA5-ΔCQS (human (cDNA library from HEK293)) (UniProt Q86VQ0). The description is as above.
The target of assay [4] is sLCA5-ΔVQT (human (cDNA library from HEK293)) (UniProt Q86VQ0). The description is as above.
Assay [5] concerns the target FITC-labelled BMF (Bcl-2-modifying factor) peptide (…). Put plainly: fluorescence polarisation; direct titration of 50 nM FITC-BMF peptide with LC8; 25 °C, PBS, 2 mM TCEP, 0.05% Brij.
In assay [6] the target is Dynein light chain LC8 (DYNLL2), 6xHis-tagged (UniProt Q96FJ2). Put plainly: SEC; Superose 6 Increase 10/300, DPBS with 200 μM TCEP; LC8 or sLCA5-WT alone; masses estimated from a calibration curve.
The target of assay [7] is sLCA5-WT (LCA5 96-430 with N-terminal MBP and C-terminal 6xHis) (human (cDNA library from HEK293)) (UniProt Q86VQ0). In words: SEC; Superose 6 Increase 10/300, DPBS with 200 μM TCEP; 30 μM LCA5 construct with 150 μM LC8, injected immediately or after 60 min at 37 °C; fractions analysed by SDS-PAGE and densitometry. For orientation: In gel filtration, larger molecules generally elute earlier.

For assay [8], the target named is sLCA5-ΔCQS (human (cDNA library from HEK293)) (UniProt Q86VQ0). The description is as above.
Assay [9] addresses sLCA5-ΔVQT (human (cDNA library from HEK293)) (UniProt Q86VQ0). Described as above.

Chain of Dynein light chain LC8 (DYNLL2), 6xHis-tagged (from UniProt Q96FJ2 1-89) (natural protein) (Q96FJ2 whole entry): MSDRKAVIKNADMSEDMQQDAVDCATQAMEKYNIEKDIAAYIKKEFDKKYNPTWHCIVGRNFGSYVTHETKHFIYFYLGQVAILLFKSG
Chain of sLCA5-ΔCQS (human (cDNA library from HEK293)) (Q86VQ0 other isoform, or with tags, fused parts or gaps mutant): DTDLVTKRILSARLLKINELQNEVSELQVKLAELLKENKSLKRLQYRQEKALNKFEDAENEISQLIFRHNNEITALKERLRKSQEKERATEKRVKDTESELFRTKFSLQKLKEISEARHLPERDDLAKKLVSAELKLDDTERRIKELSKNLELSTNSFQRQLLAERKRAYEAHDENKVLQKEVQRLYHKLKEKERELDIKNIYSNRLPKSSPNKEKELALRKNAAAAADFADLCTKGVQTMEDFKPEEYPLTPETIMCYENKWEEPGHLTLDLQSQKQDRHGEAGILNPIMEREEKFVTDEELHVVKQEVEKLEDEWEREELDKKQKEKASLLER
Chain of sLCA5-WT (LCA5 96-430 with N-terminal MBP and C-terminal 6xHis) (human (cDNA library from HEK293)) (Q86VQ0 96-430): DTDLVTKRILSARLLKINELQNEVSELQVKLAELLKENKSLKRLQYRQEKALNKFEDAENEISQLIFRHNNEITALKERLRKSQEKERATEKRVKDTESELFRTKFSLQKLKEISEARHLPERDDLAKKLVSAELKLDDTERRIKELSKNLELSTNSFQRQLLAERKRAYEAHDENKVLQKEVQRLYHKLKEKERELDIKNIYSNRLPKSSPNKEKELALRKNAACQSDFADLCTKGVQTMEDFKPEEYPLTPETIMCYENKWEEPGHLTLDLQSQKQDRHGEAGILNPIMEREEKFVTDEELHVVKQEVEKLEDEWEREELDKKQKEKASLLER
Chain of sLCA5-ΔVQT (human (cDNA library from HEK293)) (Q86VQ0 other isoform, or with tags, fused parts or gaps mutant): as the sequence (Q86VQ0 96-430) above, with V238A, Q239A, T240A counted along it

As a reminder, the stoichiometry N is the number of molecules, sites or subunits per partner or assembly. On to “Dynein light chain LC8 (DYNLL2), 6xHis-tagged (from UniProt Q96FJ2 1-89) (natural protein)”, for which the increase in the melting temperature of sLCA5-WT in complex with LC8 (CD thermal denaturation at 222 nm, 10-80 °C; 1.2 μM LCA5, 6 μM LC8) in assay [1] stood at 5 °C. Further, in assay [2], the dH was -11.8 kcal/mol and the stoichiometry N was 1 LCA5:LC8. In addition, in assay [3], the dH was -8.62 kcal/mol and the stoichiometry N was 2 LCA5:LC8. Further, in [4], the dH was -12.5 kcal/mol and the stoichiometry N was 2 LCA5:LC8. Besides, the LC8 concentration at 80% saturation of the BMF peptide in [5] came to 12 µM. The stoichiometry N in [6] is 2. For the same substance, in assay [7], the molar ratio LCA5:LC8 in the LCA5 peak is 1 LCA5:LC8, the molar ratio LCA5:LC8 in the intermediate fraction is 1 LCA5:LC8 and the molar ratio sLCA5:LC8 in the oligomeric (void) fraction is 0.5 LCA5:LC8. In assay [8], the molar ratio LCA5:LC8 in the LCA5 peak was 2 LCA5:LC8 and the molar ratio sLCA5:LC8 in the oligomeric (void) fraction was 1 LCA5:LC8. In addition, in assay [9], the molar ratio LCA5:LC8 in the earlier eluted part of the LCA5 peak is 2 LCA5:LC8 and the molar ratio LCA5:LC8 in the later part of the LCA5 peak is 1 LCA5:LC8.
